From the nanobody polyreactivity screen of Harvey et al. (2022)

Experiment: yeast display, Sf9 membrane polyspecificity reagent, FACS + sequencing; frameworks hold sequencing errors
In short: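 After 36–48 hours of galactose induction, yeast (Saccharomyces cerevisiae BJ5465) displaying a synthetic nanobody library were stained at 4 °C for 1 hour with 10% biotinylated, detergent-solubilized Sf9 membrane reagent. Streptavidin microbeads enriched the stained cells before FACS sorting into low and high (top ~1%) gates on anti-HA and streptavidin fluorescence. Each clone's polyreactivity label reflects its gate of origin.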

Row | Sequence | polyreactivity (PSR sort gate)
1 | QVQLVESGGGLVQAGGSLRLSCAASGGIFAQYAMGWYRQAPGKEREFVATISTSGGSTYYADSVKGRYTISRDNAKNTVYLQMNSLKPEDTAVYYCARYSYRGTNVRYDYWGQGTQVTVSS | high polyreactivity
2 | QVQLVESGGGLVQAGGSLRLSCAACGRTFYFYTMGWYRQAPGKERELVAAITRSGVSTYYADSVKGRFTISRDNAKNTVYLQMNSLKPEDTAVYYCAVRTWGYTQYYYWGQGTQVTVSS | high polyreactivity
3 | QVQLVESGGGLVQAGGSLRLSCAASGRISRSKTMGWYRQATGKERELFAVINTWIGGSTYYADSVKGRFTISRDNAKNTVYLQMNRQKPEDTAVYYCAADATLWDWWLDYDYWGQVTQVTVSS | high polyreactivity
4 | QVQLVESGGGLVQAGGSLRLSCDASGLTFPSYAMGWYRQAPGKERELVAAISSGDSTNYADSVKGRFTISRDNAKNTVYLQMNSLKPEDTAVYYCAVGLPHGGRRLYGSWYRFDYWGQGTQVTVSS | low polyreactivity
5 | QVQLVESGGGLVQAGGSLRLSCAASGFIFLWYAMGWYRQAPGKERELVAAISSGGGRTHYADSVKGRFTISRDNAKNTVYLQMNSLKPEDTAVYYCAAALRGQASRFDYWGQGTKVTVSS | high polyreactivity
6 | QDQLVESGGGLVQAGGSLRLSCAASGIIFARYAMGWSRPAPGKERELVAAITSGGGSTYYADSVKGRFTISRDNAMNTVYLQMYSLKPEDTAVYYCAADYQTIGWGYDYWGQGTQVTVSS | low polyreactivity
7 | QVQLVESGGRLVKAGGSLRLSCPASGRIFADYAMGWYRQAPGKESELVADIRRSGGRTYYADSVKGRFTISRDNAKNTVYIQMNSLKPEDTAVYYCATDYGSWGDYSGNYDYWGQGTQVTVSS | low polyreactivity
8 | QVQLVESGGGLVQAGGSLRLSCAASGSTFDKNTMGWYRQAPGKERELVAAISRSGGSTYYADSVKGRYTISRDNAKNTVYLQMNSLKPEDTAVYYCAAQSRYWTYDYWGQGTQVTVSS | high polyreactivity
9 | QVQLVESGGVLVQAVGSLRLSCAASGSIFHDYALGWYRQAPGKEREMVAAISSGSGSTSYADSVKGRFTISRDNAKNTVYLQMNSLKPEATAVYYCNADADAVPFAFRGSYDYWGQGTQVTVSS | low polyreactivity
10 | QVQLVESGGGLVQAGGSLRLSCAASGSIINRYAKGWYRQAPGKERELVAAITQSGGRTYYADSVKGRFTISRDNAKNTVYLQMNSLNPEDTAVYYCNAVRWYLYDYWGQGTQVTVSS | high polyreactivity
11 | QVQLVESGGGLVQAGGSLRLSRAASGRIFHLYAMGWYRQAPGKERELVAAITGRGGSTYYADSVKGRFTISRDNAKNTVYLQMNSLKPEDTAVYYCAAYEFGFLRYYSGRSYYYWGQGTQVTVSS | high polyreactivity
12 | QVQLVESGGGLVQAGGSLRLSCAASGSTFQRYAMGWYRQAPGKERELVASISTSGGSTYYAHSVKGRFTISRDNAKNTVYLQMNSLKPEDTAVYYCAAQGWSRQVREGWIKRDYWGQGTQVTVSS | high polyreactivity
13 | QVQLVESGGGLVQAGGSLRLSCAASGRIFLSNAMGRYRQAPRKDRELVAAISWTGGSTYYADSVKGRFTISRDNAKNTVYLQMNSLKPEDTAVYYCAASTVGQTYSYYVDTYDYWGQGTQVTVSS | low polyreactivity
14 | QVQLVESGGGLVQAGGSLRLSCAASGSTFRRYAMGWYRQAPGKERELVAAITSTDVNTYYADSVKGRFTISRDNAKNTVYFQMNSLKPEDTAVYYCAAVYLGYYGVSDMEYWGQGTQVTVSS | high polyreactivity
15 | QVQLVESGGGLVQAGGSLRLSCAASGITFTSYVMGWYRQAPGKERELVAAIRWSGGRTYYADSVKGRFTISRDNAKNTVYLQINSLKPEDTAVYYCAAYPSYYGDSGLRYDYWGQGTQVTVSS | high polyreactivity
16 | QVQLVESGGVLVQAGGSLRLSCAAAGRIFIWNAMGWYRQAPGKERELDAAISSGGTYYADSVKGRFTISRDNAKNTVYLQMNSLKPEDTAVYYCAADWEVYVSEFVYWGQGTQVTVSS | low polyreactivity
17 | QVQLVQSGGGLVQAGGSLRLSCAASGRPSLLMLWDGIDRRLGKKGSWLPLLTLVTPTTYADSVKGRFTISRDNAKNTVYLQMNSLKPEDTAVYYCNADFRPLDHYVNWYYYWGQGTQVTVSS | low polyreactivity
18 | QVHLVESGGGLVQAGGSLRLSCAASGSILSINGRGWSRQAPGKERELVATIDGSDGSTFYADSVKGRFTISRDNAKNTVYLQMNSLKPEDTAVYYCAAENFWQTKEYDYWGQGTQVTVSS | low polyreactivity
19 | QVQLVESGAGLVQAGGSLRLTCAASGFIFRRNAMGWYRQAPGKERELVAAITTGGRTNYADSVKGRFTISRDNAKNTVYLQMNSLKPEDTPVYYCYAPVLDVIDVFYYARILFGYWGQGTQVTVSS | low polyreactivity
20 | QVQLVESAGGLVQAGGSLRLTCAASGRTFTFNTMGWYRQAPGKERELVAAIDGDGTTNYADSVKGRFTISRDNAKNTVYLQMNSLKPEDTAVYYCAADFLYSFWYEPTFDYWGQGTQVTVSS | low polyreactivity
21 | QVQLVESGAGLVQAGGSLRLSCAASGIIFPFYAMGWYRQAPGKEMELVAAITSDGNTNYADSVKGRFTFSRDNAKNTVYLQMNSLKPVDTAVYYCNAETQYAVLSWHSTRHDYWGQGTQVTLSS | low polyreactivity
22 | QVQLVESGGGLVQAGGSLRLSCAASGITSWYYAMGWYRQAPGKERELVAAITSDGRTNYADSVMGRFTISRDNAKNTVYLQMNSLKPEDTAVYYCAVARYPYRYDYWGQGTQVTVSS | high polyreactivity

Row | Sequence | polyreactivity (PSR sort gate)
23 | QVQLVESGGGIVQAGGSLRLSCAASGFTFDPYAMGWYRQAPGKERELVAATSWSGGSTYYADSVKGRFTISRDNAKNTVYLQMNSLKPEDTAVYYCAAEWYNSAYYEYDYWGQGTQVTVSS | high polyreactivity
24 | QVQLVESGGGLVQAGGSLRLSCAASGSTFYDYAMGWYRQAPGKERELVAAISQSGGSTYYADSVKGRFTISRDNAKNTVYLQMNSLKPEDTAVYYCAADSGYSLYDYWGQGTQVTVSS | low polyreactivity
25 | QVQLVESGGGLVQAGGSLRLSWAASGLTFETYVMGWYRQAPGKERELVAAISSSGRTYYADSVKGRFTISRDNAKNTVYLQMNSLKPEDTAVYYCAARGREFGYWGQGTQVTVSS | high polyreactivity
26 | QVQLVESGGGLVQAGGSLRLSCAASGRILRTNAMGWYRQAPGKERELVAAISSDGSTYYADSVKGRFTISRDNAKNTVYLQMNSLKPEDTAVYYCAARLFYRGPRFDYWGQGTQVTVSS | low polyreactivity
27 | QVQLVESGGGLVQAGGSLRLSCAASGIIFAPYAMGWYRHPPGKERELVAAITDSGGSTYYADSVKGRFTISRDNSKNTVYLQMKSLKPEDTAVYYCAVDSNPPDWWAVIYGYWGQGTQVTVSS | low polyreactivity
28 | QVQLVESGGGLVQAGGSLRLSCAASGSIFYYYAMGWYRQAPGKERELVARITFSGGDTYYADSVKGRFTISRDNAKNTVYLQMNSLKPEDSAVYYCAAYCSYFFAWLDSYRDDYDYWGQGTQVTVSS | low polyreactivity
29 | QVQLVESGGGLVQAGGSLRLSSAASGYIFTPYAMGWYRQAPGKERELVAAISSSTVRTFYADSVKGRFTISRDNAKNTVYLQMNSLKPEDTAVYYCAARGYWGQGTQVTVSS | high polyreactivity
30 | QVQLVESGGGLVQAGGSLRLSCADSGLIFGYYAMGGYRQAPGKERELVAAITSSGTSTYYADSVKGRFTISRDNAKNTVYLQMNSLKPEDTAVYYCAAQYIGKKRFNYWGQGTQVTVSS | high polyreactivity
31 | QVHLVESVGGLVQAGGSLRLSCAASGSIFLRYGMGWYRQAPGKERELVASISSSGGSTYYADSVKGRFTISRDNAKNTVYLQMNSLKPEDTAVYYCAADVPGARVSYWTSSGWHYDYCGQGTQVTVSS | high polyreactivity
32 | QVQLVESGGGIVQAGGSLSLSCAASGFIIPSYTMGWYRQAPGKERDLVAGITQRGGSTYYADSVKGRFTISRDNAKNTVYLQMNSLNPEDTAVYYCARGISRGRSFGIGYDYWGQGTQVTLSS | low polyreactivity
33 | QVQLVESGGGLVQAGGSLRLSCPASGRTFWWYAMGWYRQAPGKEREIVAAISQRGTSTYYADSVKGRFTISRDNAKNTVYLQMNSLNPEDTAVYYCAADRPYYPLKYDYWGQGTQVTVSS | high polyreactivity
34 | QVQLVESGGGLVQAGGSLRLSCAASGSIIHPYTMGWYRPAPGKERELVAGISESSDSTYYADSVKGRFTISRDNAKNTVYLQMNSLKPEYTAVYYCNRDHDWPLSVLEVDYWGQGTQVTVSS | low polyreactivity
35 | QVQLVESGGGLVQAGGSLRLSCAASGSTFYYYAMGWYRQAPGKERELVAVISWGGGSTYYADSVKGRFTISRDNAKNTVYLQMNSLKPEDTAVYYCAAVYDEYQTTHEYDYWGQGTQVTVSS | low polyreactivity
36 | QVQLVESGGGLVQAGGSLRLSCAASGYTFQYNDMGWYRQAPGKERELVAGISIGGSTNYADSVKGRFTISRDNAKNTVYLQMNSLKPEDTAVYYCAARTLWFPGTTSTSVGSKYGYWGQGTQVSVSS | low polyreactivity
37 | QVQLVESGGGLVQAGGSLRLSCAASGSIFYGYAMGWYRQATGKERELVAAITSGGSTYYADSVKGRFTISRDNAKNTVYLQMNSLKPEDTAVYYCAADYPSRYWRIDYEYWGQGTQVTVSS | high polyreactivity
38 | QVQLVESGGGLVQAGGSLRLSCAASGFIFWYYAMGWSRQAPGKERELVAAISKSGGRTYYADSVKGRFTISRDNAKNTVYLQMNSLKPEDTAVYYCARRAYLSYGYWSDYWGQGTQVTVSS | high polyreactivity
39 | QVQLVESGGGLVQAGGSLRLSCAASGRTFYANAMGWYRQAPGKERELVATITRGGSTNYADSVKGRFTISRDNAKNTVYLQMNSLKPEDTAVYYCAARSYTSSHRHYYWGQGTQVTVSS | low polyreactivity
40 | QVQLVESGGGLVQAGGSLRLSCAPSGRTFNYNAMGWYRQAPGKERELVAAITSSGGGTSYADSVKGRFTISRDNAKNTVYFQMNSLKPYYTAVYYCAAEVDRGKYCSTYRGGDYCGQGTQVTVSS | high polyreactivity
41 | QVQLVESGGGLVQAGGSLRLSCAASGRTFAAYAMGWYRPAPGKESELVAAISSSSGNTYYADSVKGRFTISRDNAKNTVYLQMNSLKPEDTAVYYCNAQRRFNANYWYDYWGQGTQVTVSS | high polyreactivity
42 | QVQLQESGGGLVQAGGSLRMSCAASGSIFYVYGMGWYRQAPGKERELVAGINAGTNTNYADSVRGRFTISRDNAKNTVHLQMKSLKPEDTAVYYCAADGNGYQADEYWGQGTQVTVSS | high polyreactivity
43 | QVQLVESGGGLVQAGGSLRLSCAASGSIFPYYAMGGYRQAAGKERELVATITSRGGSTDYADYVKGRFTISRDNAKNTVYLQMNSLKREDTAVYYCAKEYRYYRRRYDYWGQGTQVTVSS | high polyreactivity
